# In patent US20210087522:
# T1: FNPCP, CP of an uncharacterized NRP gene cluster from Fischerella
# T1 chain: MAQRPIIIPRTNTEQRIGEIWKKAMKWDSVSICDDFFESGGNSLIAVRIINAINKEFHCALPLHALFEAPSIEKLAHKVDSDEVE
# T2: FisPCP, PCP of the shinorine gene cluster from Fischerella
# T2 chain: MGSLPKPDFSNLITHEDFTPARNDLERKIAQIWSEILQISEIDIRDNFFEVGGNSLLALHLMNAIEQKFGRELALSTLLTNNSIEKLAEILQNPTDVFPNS
# T3: MACP, CP of an uncharacterized NRP/PK gene cluster from M. aeruginosa NIES843
# T3 chain: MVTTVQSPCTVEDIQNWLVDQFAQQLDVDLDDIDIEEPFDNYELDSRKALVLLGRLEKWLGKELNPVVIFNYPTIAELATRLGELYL
# T4: APNPCP, CP of an uncharacterized NRP/PK gene cluster from Anabaena
# T4 chain: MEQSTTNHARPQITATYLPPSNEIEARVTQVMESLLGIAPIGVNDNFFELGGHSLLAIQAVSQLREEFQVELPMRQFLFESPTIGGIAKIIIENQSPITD
# T5: SFACP, ACP of the FAS from Synechocystis
# T5 chain: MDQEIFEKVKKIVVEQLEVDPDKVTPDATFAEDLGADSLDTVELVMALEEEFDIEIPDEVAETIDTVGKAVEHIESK
# T6: FNsACP, homolog of ArCPNp from Fischerella
# T6 chain: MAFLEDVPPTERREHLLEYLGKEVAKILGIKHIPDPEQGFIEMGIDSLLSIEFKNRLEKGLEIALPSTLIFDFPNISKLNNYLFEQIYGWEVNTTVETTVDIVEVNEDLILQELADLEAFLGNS
# T7: AFACP, ACP of the FAS from Anabaena
# T7 chain: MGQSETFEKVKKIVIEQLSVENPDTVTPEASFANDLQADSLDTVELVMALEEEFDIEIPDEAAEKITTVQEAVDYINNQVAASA
# T8: APACP, ACP of the glycolipid PKS in Anabaena
# T8 chain: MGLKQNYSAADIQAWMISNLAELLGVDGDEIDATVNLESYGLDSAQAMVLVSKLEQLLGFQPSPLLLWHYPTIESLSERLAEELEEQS
# T9: SsPCP, PCP of a thaxtomin cluster from Streptomyces scabiei 87.22
# T9 chain: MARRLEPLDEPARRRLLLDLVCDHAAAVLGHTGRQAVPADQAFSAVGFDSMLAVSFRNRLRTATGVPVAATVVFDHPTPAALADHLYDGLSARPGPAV
# B1: APPT, Sfp-like phosphopantetheinyl transferase (PPTase) from Anabaena sp. PCC7120 (protein)
# chain: MLQHTWLPKPPNLTLLSDEVHLWRIPLDQPESQLQDLAATLSSDELARANRFYFPEHRRRFTAGRGILRSILGGYLGVEPGQVKFDYESRGKPILGDRFAESGLLFNLSHSQNLALCAVNYTRQIGIDLEYLRPTSDLESLAKRFFLPREYELLRSLPDEQKQKIFFRYWTCKEAYLKATGDGIAKLEEIEIALTPTEPAKLQTAPAWSLLELVPDDNCVAAVAVAGFGWQPKFWHY
# B2: AvPPT, Sfp-like phosphopantetheinyl transferase (PPTase) from Anabaena variabilis ATCC29413 (protein)
# chain: MLQHTWLPKPPNLTLLSDEVHLWRIPLDRPESQLQHLAATLSSDELARANRFYFPEHRQRFTAGRGILRSILGLYLGVEPKQVKFEYESRGKPVLGDRFADSGLLFNLSHSQNLGLCAVNYTRQIGIDLEYLRPTSDLESLAKRFFLPREYELLRSLPDEQKQKIFFRYWTCKEAYLKATGDGIAKLEEIEIALTPTEPAKLQTTPAWSLLELVPDDNCVAAVAVAGFGWQPKFWQY
# Tests used:
# [1] = target: T1, FNPCP, CP of an uncharacterized NRP …
# [2] = target: T2, FisPCP, PCP of the shinorine gene …
# [3] = target: ScACP, ACP of a putative concanamycin gene cluster from Streptomyces coelicolor A(3)2
# [4] = target: T3, MACP, CP of an uncharacterized NRP/PK …
# [5] = target: T4, APNPCP, CP of an uncharacterized NRP/PK …
# [6] = target: AprACP, ACP of the apratoxin (PK/NRP) gene cluster in Lyngbya sp.
# [7] = target: T5, SFACP, ACP of the FAS from Synechocystis
# [8] = target: T6, FNsACP, homolog of ArCPNp from …
# [9] = target: T7, AFACP, ACP of the FAS from Anabaena
# [10] = target: T8, APACP, ACP of the glycolipid PKS in …
# [11] = target: T9, SsPCP, PCP of a thaxtomin cluster from …
protein,measurement,setting,value
B1,Km,[1],12.1 µM
same,kcat,[1],12.2 min⁻¹
same,kcat/Km,[1],1 µM⁻¹ min⁻¹
same,"phosphopantetheinylation of CP (apo to holo), LC-MS",[1],"APPT, AvPPT, MPPT and Sfp functionalized all substrates"
same,Km,[2],7.1 µM
same,kcat,[2],2.3 min⁻¹
same,kcat/Km,[2],0.3 µM⁻¹ min⁻¹
same,"phosphopantetheinylation of CP (apo to holo), LC-MS",[2],"APPT, AvPPT, MPPT and Sfp functionalized all substrates"
same,Km,[3],14.1 µM
same,kcat,[3],5.4 min⁻¹
same,kcat/Km,[3],0.4 µM⁻¹ min⁻¹
same,"phosphopantetheinylation of CP (apo to holo), LC-MS",[3],"APPT, AvPPT, MPPT and Sfp functionalized all substrates"
same,Km,[4],7.9 µM
same,kcat,[4],3.7 min⁻¹
same,kcat/Km,[4],0.5 µM⁻¹ min⁻¹
same,"phosphopantetheinylation of CP (apo to holo), LC-MS",[4],"APPT, AvPPT, MPPT and Sfp functionalized all substrates"
same,Km,[5],1.6 µM
same,kcat,[5],1 min⁻¹
same,kcat/Km,[5],0.6 µM⁻¹ min⁻¹
same,"phosphopantetheinylation of CP (apo to holo), LC-MS",[5],"APPT, AvPPT, MPPT and Sfp functionalized all substrates"
same,Km,[6],7.8 µM
same,kcat,[6],14.3 min⁻¹
same,kcat/Km,[6],1.8 µM⁻¹ min⁻¹
same,"phosphopantetheinylation of CP (apo to holo), LC-MS",[6],"APPT, AvPPT, MPPT and Sfp functionalized all substrates"
same,Km,[7],2.8 µM
same,kcat,[7],1.6 min⁻¹
same,kcat/Km,[7],0.6 µM⁻¹ min⁻¹
same,"phosphopantetheinylation of CP (apo to holo), LC-MS",[7],"APPT, AvPPT, MPPT and Sfp functionalized all substrates"
same,Km,[8],8.4 µM
same,kcat,[8],2.2 min⁻¹
same,kcat/Km,[8],0.3 µM⁻¹ min⁻¹
same,"phosphopantetheinylation of CP (apo to holo), LC-MS",[8],"APPT, AvPPT, MPPT and Sfp functionalized all substrates"
same,Km,[9],6.8 µM
same,kcat,[9],11.7 min⁻¹
same,kcat/Km,[9],1.7 µM⁻¹ min⁻¹
same,"phosphopantetheinylation of CP (apo to holo), LC-MS",[9],"APPT, AvPPT, MPPT and Sfp functionalized all substrates"
same,Km,[10],10 µM
same,kcat,[10],17 min⁻¹
same,kcat/Km,[10],1.6 µM⁻¹ min⁻¹
same,"phosphopantetheinylation of CP (apo to holo), LC-MS",[10],"APPT, AvPPT, MPPT and Sfp functionalized all substrates"
same,Km,[11],7.4 µM
same,kcat,[11],7.6 min⁻¹
same,kcat/Km,[11],1 µM⁻¹ min⁻¹
same,"phosphopantetheinylation of CP (apo to holo), LC-MS",[11],"APPT, AvPPT, MPPT and Sfp functionalized all substrates"
B2,"phosphopantetheinylation of CP (apo to holo), LC-MS",[1],"APPT, AvPPT, MPPT and Sfp functionalized all substrates"
same,"phosphopantetheinylation of CP (apo to holo), LC-MS",[2],"APPT, AvPPT, MPPT and Sfp functionalized all substrates"
same,"phosphopantetheinylation of CP (apo to holo), LC-MS",[3],"APPT, AvPPT, MPPT and Sfp functionalized all substrates"
same,"phosphopantetheinylation of CP (apo to holo), LC-MS",[4],"APPT, AvPPT, MPPT and Sfp functionalized all substrates"
same,"phosphopantetheinylation of CP (apo to holo), LC-MS",[5],"APPT, AvPPT, MPPT and Sfp functionalized all substrates"
same,"phosphopantetheinylation of CP (apo to holo), LC-MS",[6],"APPT, AvPPT, MPPT and Sfp functionalized all substrates"
same,"phosphopantetheinylation of CP (apo to holo), LC-MS",[7],"APPT, AvPPT, MPPT and Sfp functionalized all substrates"
same,"phosphopantetheinylation of CP (apo to holo), LC-MS",[8],"APPT, AvPPT, MPPT and Sfp functionalized all substrates"
same,"phosphopantetheinylation of CP (apo to holo), LC-MS",[9],"APPT, AvPPT, MPPT and Sfp functionalized all substrates"
same,"phosphopantetheinylation of CP (apo to holo), LC-MS",[10],"APPT, AvPPT, MPPT and Sfp functionalized all substrates"
same,"phosphopantetheinylation of CP (apo to holo), LC-MS",[11],"APPT, AvPPT, MPPT and Sfp functionalized all substrates"
